According to patent publication US20250026827A1 (Alector, published 2025):
Like-named read-outs stand apart in the source and are kept apart here.

T1: mouse SIRPα D1-Fc (mouse, UniProt P97797 32-150, limits assumed)
T1 construct: domain: D1
T1 sequence (looked up): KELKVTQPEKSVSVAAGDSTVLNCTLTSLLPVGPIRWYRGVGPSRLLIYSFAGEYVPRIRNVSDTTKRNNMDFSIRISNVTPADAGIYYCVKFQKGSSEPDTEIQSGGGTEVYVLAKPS

T2: mouse SIRPβ1 on CHO cells (mouse)
T2 construct: Whole entry
T2 chain: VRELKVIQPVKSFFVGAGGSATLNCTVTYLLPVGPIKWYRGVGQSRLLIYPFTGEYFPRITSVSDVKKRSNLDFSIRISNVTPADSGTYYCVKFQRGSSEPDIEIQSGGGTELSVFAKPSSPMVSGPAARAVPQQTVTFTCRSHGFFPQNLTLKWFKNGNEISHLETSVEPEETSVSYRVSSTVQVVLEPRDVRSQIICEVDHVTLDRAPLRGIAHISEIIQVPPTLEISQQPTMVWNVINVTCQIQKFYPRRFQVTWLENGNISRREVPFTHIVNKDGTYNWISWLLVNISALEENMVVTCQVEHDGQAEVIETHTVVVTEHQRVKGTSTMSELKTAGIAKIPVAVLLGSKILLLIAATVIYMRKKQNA

T3: mouse SIRPα on cells (mouse, UniProt P97797 32-513)
T3 construct: whole, on cells
T3 sequence (looked up): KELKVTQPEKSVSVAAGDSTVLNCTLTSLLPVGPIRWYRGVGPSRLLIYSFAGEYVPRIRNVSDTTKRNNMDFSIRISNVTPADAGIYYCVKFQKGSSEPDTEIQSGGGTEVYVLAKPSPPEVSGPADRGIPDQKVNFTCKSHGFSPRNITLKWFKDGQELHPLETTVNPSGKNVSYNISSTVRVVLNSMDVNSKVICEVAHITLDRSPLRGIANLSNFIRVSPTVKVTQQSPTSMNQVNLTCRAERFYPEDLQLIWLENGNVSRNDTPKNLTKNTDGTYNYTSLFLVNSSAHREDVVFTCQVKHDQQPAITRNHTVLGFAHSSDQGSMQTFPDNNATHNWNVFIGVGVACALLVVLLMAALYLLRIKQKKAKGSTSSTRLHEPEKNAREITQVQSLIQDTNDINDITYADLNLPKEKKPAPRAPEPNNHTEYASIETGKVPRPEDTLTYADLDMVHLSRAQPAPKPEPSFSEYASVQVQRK


How the values were obtained:
[1] = target: T4, human SIRPβ1 domain 1 (D1) Fc fusion (human, UniProt O00241 30-148); assay: Octet, Fab monovalent
T4 construct: Made in HEK293/T cells with a heterologous signal peptide; also called Human SIRPβ1 D1-Fc; Human SIRPβ1-Fc; not shown: C-terminal human IgG1 Fc
T4 sequence (O00241 30-148 limits assumed): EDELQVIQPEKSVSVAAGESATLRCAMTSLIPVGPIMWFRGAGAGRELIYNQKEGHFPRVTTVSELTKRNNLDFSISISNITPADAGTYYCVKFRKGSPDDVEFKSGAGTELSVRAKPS

[2] = target: T5, Human SIRPβ HIS (human, UniProt O00241 30-148, limits assumed); assay: MSD-SET, Fab monovalent
T5 construct: detected with streptavidin, so biotinylated; also called recombinant human SIRPβ1; human SIRPβ1 monomer
T5 sequence (O00241 30-148 limits assumed): as above

[3] = target: T1, mouse SIRPα D1-Fc; assay: Octet
[4] = target: T6, human SIRPα on cells (human, UniProt P78324 31-504); assay: flow cytometry
T6 construct: Whole entry

[5] = target: T2, mouse SIRPβ1 on CHO cells; assay: flow cytometry
[6] = target: T3, mouse SIRPα on cells; assay: flow cytometry;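 on FOB: antibodies tested at 1 µg/ml for 30 min on ice against receptor-expressing cells, detected with a PE-labelled secondary antibody, read as mean fluorescence intensity relative to background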
[7] = target: T7, human SIRPβ1 isoform 1 on cells (human, UniProt O00241 30-398); assay: flow cytometry
T7 construct: On CHO cells (low level), on BWZ/BW5147.G.1.4 cells (reporter cells co-express human DAP12) or on primary human myeloid cells; also called huSIRPβ1; BWZ-huSIRPβ1
T7 sequence (O00241 30-398): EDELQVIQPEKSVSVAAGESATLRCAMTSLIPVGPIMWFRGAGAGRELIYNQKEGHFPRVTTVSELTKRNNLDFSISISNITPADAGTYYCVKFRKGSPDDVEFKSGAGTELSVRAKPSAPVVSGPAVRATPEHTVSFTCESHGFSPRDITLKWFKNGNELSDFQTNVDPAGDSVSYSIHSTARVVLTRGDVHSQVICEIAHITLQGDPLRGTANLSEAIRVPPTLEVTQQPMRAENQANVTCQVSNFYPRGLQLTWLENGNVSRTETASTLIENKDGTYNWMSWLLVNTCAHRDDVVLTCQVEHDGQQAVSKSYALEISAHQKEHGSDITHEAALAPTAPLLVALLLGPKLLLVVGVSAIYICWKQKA

[8] = target: T6, human SIRPα on cells; assay: flow cytometry; remark: listed apart in the source
[9] = target: T2, mouse SIRPβ1 on CHO cells; assay: flow cytometry
[10] = target: T3, mouse SIRPα on cells; assay: flow cytometry; remark: listed apart in the source;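 on FOB: antibodies tested at 1 µg/ml for 30 min on ice against receptor-expressing cells, detected with a PE-labelled secondary antibody, read as mean fluorescence intensity relative to background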
[11] = target: T7, human SIRPβ1 isoform 1 on cells; assay: flow cytometry; remark: listed apart in the source
Procedure: (§1) Cells were then washed twice and incubated in 100 ul FACS buffer containing 0.5 μg/ml PE-conjugated secondary antibody for 30 minutes on ice. Cells were washed twice in cold FACS buffer and acquired on a BD FACS Canto. Data analysis and calculation of mean fluorescence intensity (MFI) values or 00 positive cells was performed with FlowJo (TreeStar) software version 10.0.7.
(§2) Given the high sequence similarity between receptors of the SIRPβ family, anti-SIRPβ1 antibodies were also screened for cross-reactivity to human SIRPα.

[12] = target: T6, human SIRPα on cells; assay: flow cytometry; remark: listed apart in the source
Procedure: as §1, §2

[13] = target: T2, mouse SIRPβ1 on CHO cells; assay: flow cytometry
Procedure: as §1, §2

[14] = target: T4, human SIRPβ1 domain 1 (D1) Fc fusion; assay: Octet, IgG avid
[15] = target: T8, human SIRPα domain 1 (D1) Fc fusion (human, UniProt P78324 32-149); assay: Octet, IgG avid
T8 construct: also called human SIRPα D1-Fc; Human SIRPα Fc; not shown: C-terminal human IgG1 Fc

[16] = target: T9, Soluble, human SIRPβ1-Fc isoform 1 (O00241) (human, UniProt O00241 30-371, limits assumed); assay: ELISA, antigen coated
T9 construct: Whole entry named; also called human SIRPβ1 isoform 1
T9 sequence (O00241 30-371 limits assumed, one chain of several): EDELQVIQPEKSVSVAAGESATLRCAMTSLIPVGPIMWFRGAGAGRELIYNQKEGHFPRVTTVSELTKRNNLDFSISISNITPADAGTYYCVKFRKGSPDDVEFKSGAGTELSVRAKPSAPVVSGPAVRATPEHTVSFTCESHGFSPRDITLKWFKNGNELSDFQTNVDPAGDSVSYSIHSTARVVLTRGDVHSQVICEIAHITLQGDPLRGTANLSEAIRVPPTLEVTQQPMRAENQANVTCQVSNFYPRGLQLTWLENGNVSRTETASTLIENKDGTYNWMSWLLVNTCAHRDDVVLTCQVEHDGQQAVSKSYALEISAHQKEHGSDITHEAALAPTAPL
Source text: Recombinant antigen based on the sequence of SIRPβ1 isoform 1 was used for selecting anti-SIRPβ1 antibodies from yeast library pools. To ascertain if the selected anti-SIRPβ1 antibodies cross-reacted with other isoforms of human SIRPβ1 or with cynomolgus SIRPβ1, recombinant antigens based on human SIRPβ1 isoform 3 sequence and cynomolgus SIRPβ1 isoform 1 sequence were produced by transient transfection in HEK293 cells. Purified, Fc-tagged recombinant proteins were adsorbed onto 96-well plates at 1 μg/mL overnight at 4° C. Plates were subsequently washed with PBS+0.05% Tween-20 and blocked with 1% BSA+PBS for 2 hours at room temperature. Antibodies diluted in blocking buffer at 1 μg/mL were added to wells, serially diluted, and allowed to bind antigen overnight at 4° C. The following day, the primary antibodies were removed and anti-human kappa light chain antibody conjugated to horseradish peroxidase diluted 1:10,000 in blocking buffer were added to wells and incubated for 1 hour at room temperature. Plates were washed with PBS+0.05% Tween-20 and 100 μL of TMB substrate solution was added to wells to generate a colorimetric signal proportional to amount of anti-SIRPβ1 antibody bound to antigen. Once the reaction reached an appropriate color intensity, 100 μL of Stop solution was added to quench the enzyme.
Eight anti-SIRPβ1 antibodies (four parental antibodies and four corresponding affinity matured antibodies) were selected for analysis.

[17] = target: T7, human SIRPβ1 isoform 1 on cells; assay: cell binding titration; target not given
[18] = target: T10, human SIRPβ1-Fc isoform 3 (Q5TFQ8) (human, UniProt Q5TFQ8 30-371, limits assumed); assay: ELISA on plate-coated huSirpB-Fc (Q5TFQ8.1), anti-human kappa-HRP, A450
T10 construct: Whole entry named; made in HEK293 cells; also called human SIRPβ1 isoform 3
T10 sequence (Q5TFQ8 30-371 limits assumed, one chain of several): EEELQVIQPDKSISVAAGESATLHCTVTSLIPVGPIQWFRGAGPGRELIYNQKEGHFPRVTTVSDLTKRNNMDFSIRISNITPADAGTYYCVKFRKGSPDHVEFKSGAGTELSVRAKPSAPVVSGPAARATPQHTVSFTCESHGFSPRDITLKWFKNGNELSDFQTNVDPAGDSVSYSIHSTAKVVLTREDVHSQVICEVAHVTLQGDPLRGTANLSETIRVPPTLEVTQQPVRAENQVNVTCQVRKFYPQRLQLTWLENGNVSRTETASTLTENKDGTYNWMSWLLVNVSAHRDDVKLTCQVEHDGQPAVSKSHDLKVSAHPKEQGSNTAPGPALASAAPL
Source text: Among the multiple SIRPβ1 isoforms catalogued, isoform 1 is the full-length version of the receptor primarily expressed in the periphery. Recombinant antigen based on the sequence of SIRPβ1 isoform 1 was used for selecting anti-SIRPβ1 antibodies from yeast library pools. To ascertain if the selected anti-SIRPβ1 antibodies cross-reacted with other isoforms of human SIRPβ1 or with cynomolgus SIRPβ1, recombinant antigens based on human SIRPβ1 isoform 3 sequence and cynomolgus SIRPβ1 isoform 1 sequence were produced by transient transfection in HEK293 cells. Purified, Fc-tagged recombinant proteins were adsorbed onto 96-well plates at 1 μg/mL overnight at 4° C. Plates were subsequently washed with PBS+0.05% Tween-20 and blocked with 1% BSA+PBS for 2 hours at room temperature. Antibodies diluted in blocking buffer at 1 μg/mL were added to wells, serially diluted, and allowed to bind antigen overnight at 4° C. The following day, the primary antibodies were removed and anti-human kappa light chain antibody conjugated to horseradish peroxidase diluted 1:10,000 in blocking buffer were added to wells and incubated for 1 hour at room temperature. Plates were washed with PBS+0.05% Tween-20 and 100 μL of TMB substrate solution was added to wells to generate a colorimetric signal proportional to amount of anti-SIRPβ1 antibody bound to antigen. […]

Row | Kd [1] [nM] | Kd [2] [nM] | binding result [3] | binding result [4] | binding result [5] | binding result [6] | FOB [7] [fold over background] | FOB [8] [fold over background] | FOB [9] [fold over background] | FOB [10] [fold over background] | FOB [11] [fold over background] | FOB [12] [fold over background] | FOB [13] [fold over background] | Kd [14] [nM] | binding result [15] | EC50 [16] [nM] | EC50 [17] [nM] | binding result [18] | Binder
1 | 2.32 | 0.055 | – | – | – | – | – | – | – | – | – | – | – | – | – | – | – | – | SB-8-16 Fab (Fab, V domains shown, Fab by papain digestion) VH: QVQLQESGPGLVKPSETLSLTCAVSGYSISAHYYWGWIRQPPGKGLEWIGSIFHSGHTYYNPSLKSRVTISVDTSKNQFSLKLSSVTAADTAVYYCARAGAMTPAGMDVWGQGTTVTVSS VL: EIVMTQSPGTLSLSPGERATLSCRASQSVSSSYLAWYQQKPGQAPRLLIYGASNRATGIPDRFSGSGSGTDFTLTISRLEPEDFAVYYCQQVYSSPYTFGGGTKVEIK
2 | – | – | no binding (tested: 100 nM) | no binding (tested: 1 ug/ml) | no binding (tested: 1 ug/ml) | no binding (tested: 1 ug/ml) | 7 | 2.5 | 1.1 | 1.2 | 2 | 1 | 1 | 9.64 | no binding (tested: 100 nM) | 0.04 | 0.707 | no binding (tested: 1 ug/mL) | SB-40 (antibody, V domains shown, IgG; also called SB-40 (p)) VH: QVQLVQSGAEVKKPGASVKVSCKASGYTFTSYYMSWVRQAPGQGLEWMGIINPSGGSTSYAQKFQGRVTMTRDTSTSTVYMELSSLRSEDTAVYYCARDTGEYSYSPHGMDVWGQGTTVTVSS VL: EIVLTQSPATLSLSPGERATLSCRASQSVSSYLAWYQQKPGQAPRLLIYDSSNRATGIPARFSGSGSGTDFTLTISSLEPEDFAVYYCQQRDEHPPWTFGGGTKVEIK
